Data published in patent US20040116653A1 (JARROW FORMULAS, published 2004).
Ends that are not written are not given here.

Target: human CD4 on cells (MT-2, MT-4 cells; mouse SR.hCD4 cells transfected with human CD4) (human, UniProt P01730 26-458)
Experiment: cell-based or functional assay

Row | Binder | EC50, inhibition of HIV-1IIIB replication in MT-4 cells (p24 ELISA, day 3) [µM]
1 | SGPGTTKRFPETVLARCVKYTEIH (also: biotin conjugated in ELISA, site not given here) [synthetic soluble peptide corresponding to amino acids 51-74 of CD38 (CD3851-74)] | 2.2
2 | octameric branched peptide presenting the GPGTTK sequence (GPGTTK MBP) (Each of the eight arms is bound through its C-terminus (Lys 6) to an 8-branching lysine core (Map resin), which cannot be written as a linear chain. The peptide was conjugated with biotin for the rshCD4 ELISA; the site is not stated.) peptide 1: GPGTTK peptide 2: GPGTTK peptide 3: GPGTTK peptide 4: GPGTTK peptide 5: GPGTTK peptide 6: GPGTTK peptide 7: GPGTTK peptide 8: GPGTTK | 4.3
